Test results as given in publication PMC5013595.

Assay: size-exclusion chromatography
Conditions: glycan lost; control: glycosylated IFNγR2

| Protein | oligomerisation |
| --- | --- |
| interferon-γ receptor 2 (IFNγR2): Endo H (protein) parent chain: MRPTLLWSLLLLLGVFAAAAAAPPDPLSQLPAPQHPKIRLYNAEQVLSWEPVALSNSTRPVVYQVQFKYTDSKWFTADIMSIGVNCTQITATECDFTAASPSAGFPMDFNVTLRLRAELGALHSAWVTMPWFQHYRNVTVGPPENIEVTPGEGSLIIRFSSPFDIADTSTAFFCYYVHYWEKGGIQQVKGPFRSNSISLDNLKPSRVYCLQVQAQLLWNKSNIFRVGHLSNISCYETMADASTELQQVILISVGTFSLLSVLAGACFFLVLKYRGLIKYWFHTPPSIPLQIEEYLKDPTQPILEALDKDSSPKDDVWDSVSIISFPEKEQEDVLQTL | no change |
| interferon-γ receptor 2 (IFNγR2): PNGase F (protein) parent chain: MRPTLLWSLLLLLGVFAAAAAAPPDPLSQLPAPQHPKIRLYNAEQVLSWEPVALSNSTRPVVYQVQFKYTDSKWFTADIMSIGVNCTQITATECDFTAASPSAGFPMDFNVTLRLRAELGALHSAWVTMPWFQHYRNVTVGPPENIEVTPGEGSLIIRFSSPFDIADTSTAFFCYYVHYWEKGGIQQVKGPFRSNSISLDNLKPSRVYCLQVQAQLLWNKSNIFRVGHLSNISCYETMADASTELQQVILISVGTFSLLSVLAGACFFLVLKYRGLIKYWFHTPPSIPLQIEEYLKDPTQPILEALDKDSSPKDDVWDSVSIISFPEKEQEDVLQTL | increases |

Assay: secretion into S2 culture medium
Conditions: glycan lost; control: wild type

| Protein | expression_or_secretion |
| --- | --- |
| interferon-γ receptor 2 (IFNγR2): N110Q (protein) parent chain: MRPTLLWSLLLLLGVFAAAAAAPPDPLSQLPAPQHPKIRLYNAEQVLSWEPVALSNSTRPVVYQVQFKYTDSKWFTADIMSIGVNCTQITATECDFTAASPSAGFPMDFNVTLRLRAELGALHSAWVTMPWFQHYRNVTVGPPENIEVTPGEGSLIIRFSSPFDIADTSTAFFCYYVHYWEKGGIQQVKGPFRSNSISLDNLKPSRVYCLQVQAQLLWNKSNIFRVGHLSNISCYETMADASTELQQVILISVGTFSLLSVLAGACFFLVLKYRGLIKYWFHTPPSIPLQIEEYLKDPTQPILEALDKDSSPKDDVWDSVSIISFPEKEQEDVLQTL | abolishes |
| interferon-γ receptor 2 (IFNγR2): N56Q, N110Q, N137Q and N231Q (protein) parent chain: MRPTLLWSLLLLLGVFAAAAAAPPDPLSQLPAPQHPKIRLYNAEQVLSWEPVALSNSTRPVVYQVQFKYTDSKWFTADIMSIGVNCTQITATECDFTAASPSAGFPMDFNVTLRLRAELGALHSAWVTMPWFQHYRNVTVGPPENIEVTPGEGSLIIRFSSPFDIADTSTAFFCYYVHYWEKGGIQQVKGPFRSNSISLDNLKPSRVYCLQVQAQLLWNKSNIFRVGHLSNISCYETMADASTELQQVILISVGTFSLLSVLAGACFFLVLKYRGLIKYWFHTPPSIPLQIEEYLKDPTQPILEALDKDSSPKDDVWDSVSIISFPEKEQEDVLQTL | abolishes |
| interferon-γ receptor 2 (IFNγR2): N137Q (protein) parent chain: MRPTLLWSLLLLLGVFAAAAAAPPDPLSQLPAPQHPKIRLYNAEQVLSWEPVALSNSTRPVVYQVQFKYTDSKWFTADIMSIGVNCTQITATECDFTAASPSAGFPMDFNVTLRLRAELGALHSAWVTMPWFQHYRNVTVGPPENIEVTPGEGSLIIRFSSPFDIADTSTAFFCYYVHYWEKGGIQQVKGPFRSNSISLDNLKPSRVYCLQVQAQLLWNKSNIFRVGHLSNISCYETMADASTELQQVILISVGTFSLLSVLAGACFFLVLKYRGLIKYWFHTPPSIPLQIEEYLKDPTQPILEALDKDSSPKDDVWDSVSIISFPEKEQEDVLQTL | abolishes |
| interferon-γ receptor 2 (IFNγR2): N231Q (protein) parent chain: MRPTLLWSLLLLLGVFAAAAAAPPDPLSQLPAPQHPKIRLYNAEQVLSWEPVALSNSTRPVVYQVQFKYTDSKWFTADIMSIGVNCTQITATECDFTAASPSAGFPMDFNVTLRLRAELGALHSAWVTMPWFQHYRNVTVGPPENIEVTPGEGSLIIRFSSPFDIADTSTAFFCYYVHYWEKGGIQQVKGPFRSNSISLDNLKPSRVYCLQVQAQLLWNKSNIFRVGHLSNISCYETMADASTELQQVILISVGTFSLLSVLAGACFFLVLKYRGLIKYWFHTPPSIPLQIEEYLKDPTQPILEALDKDSSPKDDVWDSVSIISFPEKEQEDVLQTL | abolishes |
